Measured values taken from article PMC8693953 (Molecular Biology of the Cell, 2021).

B1: GST-CrkII (recombinant chicken CrkII, wild type) (natural protein, UniProt Q04929 1-305, looked up)
chain: MAGQFDSEDRGSWYWGRLSRGDAVSLLQGQRHGTFLVRDSGSIPGDFVLSVSESSRVSHYIVNSLGPAGGRRAGGEGPGAPGLNPTRFRIGDQEFDSLPSLLEFYKIHYLDTTTLIEPVSRSRQNSGVILRQEEVEYVRALFDFNGNDDEDLPFKKGDILKIRDKPEEQWWNAEDMDGKRGMIPVPYVEKCRPSSASVSTLTGGNQDSSHPQPLGGPEPGPYAQPSINTPLPNLQNGPFYARVIQKRVPNAYDKTALALEVGELVKVTKINMSGQWEGECNGKRGHFPFTHVRLLDQQNPDEDFS
B2: GST-CrkCSH3 (CrkII W276K, mutation at the C-terminal SH3 domain) (natural protein, chicken, UniProt Q04929 1-305, looked up)
chain: MAGQFDSEDRGSWYWGRLSRGDAVSLLQGQRHGTFLVRDSGSIPGDFVLSVSESSRVSHYIVNSLGPAGGRRAGGEGPGAPGLNPTRFRIGDQEFDSLPSLLEFYKIHYLDTTTLIEPVSRSRQNSGVILRQEEVEYVRALFDFNGNDDEDLPFKKGDILKIRDKPEEQWWNAEDMDGKRGMIPVPYVEKCRPSSASVSTLTGGNQDSSHPQPLGGPEPGPYAQPSINTPLPNLQNGPFYARVIQKRVPNAYDKTALALEVGELVKVTKINMSGQKEGECNGKRGHFPFTHVRLLDQQNPDEDFS
B3: GST-CrkSH2 (CrkII R38K, mutation at the N-terminal SH2 domain) (natural protein, chicken, UniProt Q04929 1-305, looked up)
chain: MAGQFDSEDRGSWYWGRLSRGDAVSLLQGQRHGTFLVKDSGSIPGDFVLSVSESSRVSHYIVNSLGPAGGRRAGGEGPGAPGLNPTRFRIGDQEFDSLPSLLEFYKIHYLDTTTLIEPVSRSRQNSGVILRQEEVEYVRALFDFNGNDDEDLPFKKGDILKIRDKPEEQWWNAEDMDGKRGMIPVPYVEKCRPSSASVSTLTGGNQDSSHPQPLGGPEPGPYAQPSINTPLPNLQNGPFYARVIQKRVPNAYDKTALALEVGELVKVTKINMSGQWEGECNGKRGHFPFTHVRLLDQQNPDEDFS

Each binder was assayed against proline-rich tyrosine kinase 2 (Pyk2) (UniProt Q14289 1-1009) (assay: pull-down).
Chain of proline-rich tyrosine kinase 2 (Pyk2) (Q14289 whole entry): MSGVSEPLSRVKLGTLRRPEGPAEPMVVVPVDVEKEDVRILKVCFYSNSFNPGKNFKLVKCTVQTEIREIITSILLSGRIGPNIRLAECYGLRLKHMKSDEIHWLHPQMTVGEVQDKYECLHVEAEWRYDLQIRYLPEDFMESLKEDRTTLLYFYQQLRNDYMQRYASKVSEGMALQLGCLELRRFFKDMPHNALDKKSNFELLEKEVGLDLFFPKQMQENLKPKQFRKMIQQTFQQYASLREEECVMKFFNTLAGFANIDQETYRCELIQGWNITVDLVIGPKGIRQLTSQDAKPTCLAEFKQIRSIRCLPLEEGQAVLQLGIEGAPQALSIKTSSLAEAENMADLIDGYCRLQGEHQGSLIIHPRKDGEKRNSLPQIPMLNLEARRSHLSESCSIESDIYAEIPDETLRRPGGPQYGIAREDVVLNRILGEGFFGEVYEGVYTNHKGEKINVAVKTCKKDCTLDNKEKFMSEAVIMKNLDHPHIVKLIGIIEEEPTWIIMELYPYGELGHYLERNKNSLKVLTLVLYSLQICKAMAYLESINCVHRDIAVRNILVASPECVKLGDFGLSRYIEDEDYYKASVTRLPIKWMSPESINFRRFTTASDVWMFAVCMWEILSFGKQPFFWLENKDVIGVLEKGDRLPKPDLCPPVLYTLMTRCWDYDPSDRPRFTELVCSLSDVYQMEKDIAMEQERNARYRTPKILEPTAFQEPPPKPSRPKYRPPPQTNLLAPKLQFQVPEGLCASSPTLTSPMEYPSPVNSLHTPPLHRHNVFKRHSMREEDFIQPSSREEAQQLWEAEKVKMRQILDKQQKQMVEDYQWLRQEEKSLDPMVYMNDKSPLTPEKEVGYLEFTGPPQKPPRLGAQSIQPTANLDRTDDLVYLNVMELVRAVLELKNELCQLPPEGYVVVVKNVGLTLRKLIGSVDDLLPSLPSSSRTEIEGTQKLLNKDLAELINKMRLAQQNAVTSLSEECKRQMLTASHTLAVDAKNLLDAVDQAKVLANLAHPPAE

Question: Which Kd does the source give for B1 here?
Answer: 150 ± 30 nM

Question: For B2, which Kd is on record?
Answer: 134 ± 34 nM

Question: How did the Kd turn out when B3 was run?
Answer: 508 ± 158 nM
